Molecular target: GAL-PPARγ: chimera protein of the DNA binding region (1-147 amino acids) of yeast Gal4 with the ligand binding region of human PPARγ2 fused to its C terminus, expressed in COS-1 cells (yeast; human) (UniProt P04386)
Experiment: cell-based or functional assay

B1: full-length AOP2 with vector-derived V5 epitope and HIS6 tag at the C terminus, expressed from pcDNA-AOP2 in COS-1 cells (protein, not shown: small tags and cut ends)
chain: PGGLLLGDVAPNFEANTTVGRIRFHDFLGDSWGILFSHPRDFTPVCTTELGRAAKLAPEFAKRNVKLIALSIDSVEDHLAWSKDINAYNCEEPTEKLPFPIIDDRNRELAILLGMLDPAEKDEKGMPVTARVVFVFGPDKKLKLSILYPATTGRNFDEILRVVISLQLTAEKRVATPVDWKDGDSVMVLPTIPEEEAKKLFPKGVFTKELPSGKKYLRYTPQP
- promotion of the transcription induction ability of PPARγ in the presence of AOP2 (corrected luciferase activity, COS-1), GI-262570 at 1.0 µM and 10 µM: 3.5 fold
- promotion of the transcription induction ability of PPARγ in the presence of AOP2 (corrected luciferase activity, COS-1), GL-100085 at 1.0 to 10 µM: 4 to 6 fold
- promotion of the transcription induction ability of PPARγ in the presence of AOP2 (corrected luciferase activity, COS-1), GW7282 at 1.0 to 10 µM: 4 to 5 fold
